Substitutions are numbered along the chain they refer to.
B1: Chimeric 31C8 (antibody, human IgG2, kappa, V domains shown)
VH: QVQLQQSGPELVRPGASVTLSCKASGYIFIDSEMHWVKQTPVHGLEWIGAIDPETGDTVYNQKFKGKATLTADKSSSTASMELSSLTSEDSAVYYCTGSTTDYYFAYWGQGTTLTVSS
VL: DIVMTQAAFSNPVTLGTSASISCRSSKSLLHSNGIIYLYWYLQKPGQSPQLLIYQMSNLASGVPDRFSSSGSGTDFTLRISRVEAEDVGVYYCAQNLELPFTFGSGTKLEIKR
notes: also called xi31C8
B2: Chimeric 7D1 (antibody, human IgG2, kappa, V domains shown)
VH: QVQLQQSGAELVRPGASVTLSCKASGYTFTDYEMHWVKQTPVHGLDWIGTIDPETGDTAYNQKFKGRATLTADKSSSTAYMELSSLTSEDSAVYYCTRYSYTNSPYGMDYWGQGTSVTVSS
VL: DVVMTQTPKFLLVSAGDRVTITCKASQSVSNDVAWYQQKPGQSPKLLIYYASNRYTGVPDRFTGSGYGTDFTFTINTVQAEDLAVYFCQQDYSSPYTFGGGTKLEIKR
notes: also called xi7D1
B3: RG6149 (antibody Ab2 in CN104334582, prepared in-house) (antibody, human IgG2, kappa, V domains shown)
VH: EVQLVQSGAEVKKPGESLKISCKGSGYSFTNYWIGWVRQMPGKGLEWMGIIYPGNSDTRFSPSFQGQVTISADKSITTAYLQWSSLKASDTAMYYCARHGTSSDYYGLDVWGQGTTVTVSS
VL: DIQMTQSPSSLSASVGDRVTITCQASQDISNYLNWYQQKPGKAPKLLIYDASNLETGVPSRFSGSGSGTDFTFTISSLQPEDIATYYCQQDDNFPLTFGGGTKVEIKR
notes: Control anti-ST2 antibody
B4: Chimeric 17E2 (antibody, human IgG2, kappa, V domains shown)
VH: QVQLQQSGAELVRPGASVTLSCKASGYTFTDYEMHWVKQTPVLGLEWIGAIDPETGDTAYNQKFKGKATLTADKSSSTAYMELSSLASEDSAVYYCIRVDSNYDYFDYWGQDTTLTVSS
VL: DIVLTQSPPILSASPGEKVTMTCRASSSVSYMHWYQQKPGSSPKPWIYDTSNLASGVPARFSGSGSGTSYSLTISRVEAEDAATYYCQQWSSNPLTFGAGTKLELKR
notes: also called xi17E2
B5: Humanized 31C8-1.1 (antibody, human IgG2, kappa, V domains shown)
VH: EVQLVQSGAEVKKPGATVKISCKASGYIFIDSEMHWVQQAPGKGLEWMGAIDPETGDTVYAEKFQGRVTITADKSSSTAYMELSSLRSEDTAVYYCTGSTTDYYFAYWGQGTLVTVSS
VL: DIQMTQSPSSLSASVGDRVTITCRSSKSLLHSNGIIYLYWYQQKPGKAPKLLIYQLSNLASGVPSRFSSSGSGTDFTLTISSLQPEDFATYYCAQNLELPFTFGQGTKVEIKR
notes: also called hz31C8-1.1; hz31C81-1.1
B6: Humanized 31C8-1.2 (antibody, human IgG2, kappa, V domains shown)
VH: B5 VH with E1Q, E10K, E62K, Q65K
VL: B5 VL
notes: also called hz31C8-1.2; hz31C81-1.2
B7: GSK3772847 (antibody STLM208 in CN104411333, prepared in-house) (antibody, human IgG2, kappa, V domains shown)
VH: EVQLLESGGGLVQPGGSLRLSCAASGFTFSIYDMIWVRQAPGKGLEWVSSIRGEGGGTYYADSVKGRFTISRDNSKNTLYLQMNSLRAEDTAVYYCARDPWSTEGSFFVLDYWGQGTLVTVSS
VL: EIVLTQSPATLSLSPGERATLSCRASQSVDDDLAWYQQKPGQAPRLLIYDASNRATGIPARFSGSGSGTDFTLTISSLEPEDFAVYYCQQYITAPLTFGQGTKVEIKR
notes: Control anti-ST2 antibody

biological target: T1, human ST2 (hST2, Interleukin-1 receptor-like 1 isoform A) on cells (human, UniProt Q01638 19-556); test: cell-based or functional assay
T1 sequence: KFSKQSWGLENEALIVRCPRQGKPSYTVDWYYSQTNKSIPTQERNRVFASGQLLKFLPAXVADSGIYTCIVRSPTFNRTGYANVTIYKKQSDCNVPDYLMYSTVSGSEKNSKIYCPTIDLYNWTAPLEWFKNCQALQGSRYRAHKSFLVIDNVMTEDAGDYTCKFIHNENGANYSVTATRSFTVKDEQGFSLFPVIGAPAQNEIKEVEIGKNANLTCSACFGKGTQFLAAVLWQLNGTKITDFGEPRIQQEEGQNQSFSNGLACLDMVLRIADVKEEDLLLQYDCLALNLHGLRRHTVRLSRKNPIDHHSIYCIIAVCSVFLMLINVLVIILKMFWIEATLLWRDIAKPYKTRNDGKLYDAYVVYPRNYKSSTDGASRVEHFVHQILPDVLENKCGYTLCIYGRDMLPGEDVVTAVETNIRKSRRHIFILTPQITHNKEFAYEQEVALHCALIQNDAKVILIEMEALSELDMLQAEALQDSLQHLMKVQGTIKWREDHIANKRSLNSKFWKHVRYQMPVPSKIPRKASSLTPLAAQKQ

| Binder | IC50, blocking of the IL33/ST2-induced IL5 secretion on CD4+ T cells (hIL33 plus IL2 co-stimulation) [nM] |
| --- | --- |
| B1 | 0.09 |
| B2 | 0.12 |
| B3 | 0.32 |
| B4 | 0.08 |

Biological target: T2, recombinant protein containing hST2 extracellular domain with mouse antibody heavy chain Fc tag (hST2-ECD-mFc) (human)
T2 construct: Used for SPR and for ELISA of chimeric and humanized antibodies; also called human ST2 antigen
T2 chain: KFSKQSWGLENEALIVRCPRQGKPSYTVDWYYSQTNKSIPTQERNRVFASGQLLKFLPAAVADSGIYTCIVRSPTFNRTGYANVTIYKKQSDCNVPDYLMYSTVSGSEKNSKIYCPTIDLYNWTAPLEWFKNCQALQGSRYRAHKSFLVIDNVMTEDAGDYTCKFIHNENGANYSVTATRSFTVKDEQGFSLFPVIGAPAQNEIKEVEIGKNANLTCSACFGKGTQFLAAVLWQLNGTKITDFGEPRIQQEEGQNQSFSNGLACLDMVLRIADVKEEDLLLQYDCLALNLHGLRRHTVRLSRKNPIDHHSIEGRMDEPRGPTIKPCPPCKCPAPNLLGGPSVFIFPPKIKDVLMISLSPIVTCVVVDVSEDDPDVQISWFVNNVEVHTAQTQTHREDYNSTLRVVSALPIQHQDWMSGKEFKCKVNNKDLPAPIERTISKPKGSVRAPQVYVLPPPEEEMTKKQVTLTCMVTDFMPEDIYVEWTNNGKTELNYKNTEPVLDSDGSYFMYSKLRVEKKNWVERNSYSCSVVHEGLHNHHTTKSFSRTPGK
Test: ELISA, plate coated with hST2-ECD-mFc, antibody not heated
Method: The anti-ST2 antibodies were diluted with PBS buffer to a concentration of 1.5 mg/mL. […], the samples were assayed by ELISA for their binding activity for an antigen The ELISA procedure is as follows: A 96-well plate was coated with 2 µg/mL hST2-ECD-mFc as the antigen at 100 µL/well and incubated at 4° C. overnight. After the antigen not adsorbed was well washed off, the non-specific binding sites were blocked with a blocking buffer (PBST containing 1% bovine serum albumin). After the plate was washed three times with a washing buffer (PBST, PBS containing 0.05% (v/v) Tween 20), the anti-ST2 antibodies (serially diluted 3-fold from an initial concentration of 1.5 µg/mL to 8 concentrations) were added at 100 µL/well, and the plate was incubated at 37° C. for 1 h. […] After the plate was incubated at room temperature for 5 min, a stop solution (2 N H₂SO₄) was added to stop the reactions. The signals were read at 450 nm using a plate reader (PE, Envision). The data were analyzed using GraphPad Prism5, and the EC₅₀ values were calculated.

| Binder | EC50 [nM] |
| --- | --- |
| B5 | 0.0906 |
| B6 | 0.092 |
| B1 | 0.0744 |
| B7 | 0.109 |
| B3 | 0.143 |

Biological target: T3, cynomolgus monkey ST2 antigen (Cyno-ST2-his, Sino biological, 90915-C08H) (cynomolgus monkey, UniProt Q01638 19-328 (human entry))
T3 construct: Bought protein; not shown: his tag
T3 chain: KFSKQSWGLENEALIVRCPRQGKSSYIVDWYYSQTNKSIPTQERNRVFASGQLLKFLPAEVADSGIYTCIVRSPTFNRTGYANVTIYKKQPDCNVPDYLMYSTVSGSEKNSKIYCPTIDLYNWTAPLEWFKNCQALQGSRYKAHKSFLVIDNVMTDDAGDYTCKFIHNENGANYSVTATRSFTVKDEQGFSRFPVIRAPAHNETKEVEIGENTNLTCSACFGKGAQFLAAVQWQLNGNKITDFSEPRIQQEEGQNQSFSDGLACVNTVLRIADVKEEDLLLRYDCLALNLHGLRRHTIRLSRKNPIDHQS
Test: SPR (Biacore T200), Cyno-ST2-his captured by anti-his antibody on CM5, antibody as analyte, 1:1 model
Method: The reaction signals were detected in real time using a Biacore instrument (Cytiva, BiacoreT200), and then an association-dissociation curve was obtained. After the completion of dissociation in each cycle, the biochip was regenerated with a regeneration solution for the next capture; the procedure was repeated until the affinity of the different antibodies for ST2 was determined. The acquired data were finally analyzed using the GE BIAevaluation software with a 1:1 (Langmuir) binding model to determine the association rate constants ka (kon) and the dissociation rate constants kd (koff), and the dissociation constants KD were given by KD = kd/ka. The determined affinity of the anti-ST2 antibody for human ST2 antigen (hST2-ECD-mFc), cynomolgus monkey ST2 antigen (Cyno-ST2-his, Sino biological, 90915-C08H) and the determined affinity of the anti-ST2 chimeric antibodies for ST2 were shown in Table 5.
The humanized antibodies hz31C81-1.1 (the amino acid sequence of the heavy chain set forth in SEQ ID NO: 75 and the amino acid sequence of the light chain set forth in SEQ ID NO: 81) and hz31C8-1.2 (the amino acid sequence of the heavy chain set forth in SEQ ID NO: 77 and the amino acid sequence of the light chain set forth in SEQ ID NO: 81) were subjected to affinity, binding, blocking and cell function analyses using the methods described in Example 4, Example 5, Example 6, Example 7, Example 8, Example 9 and Example 10. In the present disclosure, “hz” and “xi” denote humanized antibodies and chimeric antibodies, respectively; for example, “hz31C81-1.1” and “hz31C81-1.2” represent humanized 31C81-1.1 and 31C81-1.2 antibodies, and “xi31C8” represents a chimeric 31C8 antibody.

| Binder | Kd [nM] |
| --- | --- |
| B5 | 2.47 |
| B6 | 5.27 |
| B1 | 1.62 |
| B7 | 0.0923 |
| B3 | 0.069 |

— patent US20230272086A1 (CHIA TAI TIANQING PHARMACEUTICAL GROUP, published 2023)
